Target: T1, PNPase wild type (Escherichia coli, UniProt P05055 1-711)
T1 sequence: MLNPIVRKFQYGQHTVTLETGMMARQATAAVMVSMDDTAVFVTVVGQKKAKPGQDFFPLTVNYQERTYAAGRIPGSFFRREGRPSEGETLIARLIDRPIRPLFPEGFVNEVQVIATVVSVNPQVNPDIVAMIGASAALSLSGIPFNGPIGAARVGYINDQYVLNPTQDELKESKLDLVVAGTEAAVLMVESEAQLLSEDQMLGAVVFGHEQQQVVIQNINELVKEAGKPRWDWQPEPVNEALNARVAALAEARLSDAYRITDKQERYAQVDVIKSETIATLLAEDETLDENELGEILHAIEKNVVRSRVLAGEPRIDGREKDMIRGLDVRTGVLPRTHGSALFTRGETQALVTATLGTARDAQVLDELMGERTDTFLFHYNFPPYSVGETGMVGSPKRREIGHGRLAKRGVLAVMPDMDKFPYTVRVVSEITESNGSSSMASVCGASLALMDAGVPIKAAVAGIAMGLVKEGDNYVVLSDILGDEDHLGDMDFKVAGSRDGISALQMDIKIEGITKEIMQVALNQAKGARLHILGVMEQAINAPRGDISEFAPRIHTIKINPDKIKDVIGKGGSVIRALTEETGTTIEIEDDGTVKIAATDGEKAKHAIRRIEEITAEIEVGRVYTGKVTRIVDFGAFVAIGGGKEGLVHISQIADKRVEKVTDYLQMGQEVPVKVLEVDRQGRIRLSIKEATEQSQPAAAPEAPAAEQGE
Test: EMSA; no divalent cation; efficiency similar to RNA01; 50 mM Tris-HCl pH 7.4, 50 mM NaCl, 0.5 mM DTT, 0.025% NP40, 10% glycerol, +/- 2 mM MgCl2 or MnCl2; 50 fmol probe in 10 µl; 20 min at 21 °C; native 5% PAGE at 4
Conditions: protein: recombinant; tags: His-tag; chain copies: 3; label: 5'-32P; single-stranded 20-mer

## ACTGGACAAATACTCCGACG (ssDNA) [DNA02]
  binding result: binds

— paper PMC5379764, “Polynucleotide phosphorylase is implicated in homologous recombination and DNA repair in Escherichia coli”
